Assay results taken from the supplement of paper PMC9170038.

System: MS2 coat protein
Experiment: apparent KD of MS2 coat protein; designed switch direction (-1 OFF switch, 1 ON switch): -1; higher = weaker reporter binding
Summary of the method: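 The reported apparent KD is a per-design median over clusters, from curve fits of normalised cluster fluorescence. Protein titrations used SNAP-549-labelled MS2 coat protein, doubled from 0.7 or 1.5 nM to 3 µM, in Tris-HCl pH 7.5 buffer with KCl, MgCl2, BSA, DTT, tRNA and Tween-20, with no input, 200 uM small-molecule ligand, or an oligonucleotide input. The RNA switches were transcribed on Illumina chips by stalled E. coli RNA polymerase.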

[1] = input ligand: microRNA oligo, concentration not stated
[2] = Eterna round: R95, input ligand: microRNA oligo, concentration not stated
[3] = Eterna round: R95, input ligand: FMN 200 uM
[4] = Eterna round: R95, input ligand: none

Sequence	apparent KD of MS2 coat protein (input ligand: FMN 200 uM)	apparent KD of MS2 coat protein (input ligand: none)	apparent KD of MS2 coat protein [2]	other results
UUUCAUCAUGUAGGAUAUGCGUGGCGAAGCUAUGCAGAAGGACAUGAGGAUCACCCAUGUUCUAGCGUCUGCGUACAGAUGCUA [JL ENG1 1.35] (Eterna round: R96, puzzle: Exclusion NG 1)	226 nM	52.4 nM		apparent KD of MS2 coat protein [1]: 45.1 nM
UUUCGGCAUGUAGGAUAUGGGUCCGAUUAGGAUUUAGAAGGACAUGAGGAUCACCCAUGUGCAUUUAAUUGGUCAUUACCUUUU [EXclNG1-LROPPY10] (Eterna round: R96, puzzle: Exclusion NG 1)				apparent KD of MS2 coat protein [1]: 46.5 nM
UUUCUACAUGUAGGAUAUGCGUGGCGAAGCUAUGCAGAAGGACAUGAGGAUCACCCAUGUUUUAGCGUCUGCGUACAGAUGCGU [JL ENG1 1.49] (Eterna round: R96, puzzle: Exclusion NG 1)	60.9 nM	20.6 nM		apparent KD of MS2 coat protein [1]: 16.2 nM
UUUCUGUGAGGAUAUCAGUAGUAAAUAAAUAAAAUUACUACUGAGAAGGCACAUGAGGAUCACCCAUGUUCCUU [salish99_ex3_r3_093] (Eterna round: R96, puzzle: Exclusion 4)	35.1 nM	16.5 nM		apparent KD of MS2 coat protein [1]: 12.9 nM
UUUCUGUGAGGAUAUCAGUAGUAAAUAAAUAAAAUUACUACUGAGAAGGCACAUGAGGAUCACCCAUGUUCCUU [salish99_ex3_r3_093] (puzzle: Exclusion 4)			13.1 nM	
UUUGGGCCUGUGAGGAUAUCGGGUUUGAAAGGGCCCGAGAAGGCACAUGAGGAUCACCCAUGUAAGGGCCCGGG [-32.7, -30.6 kcal, A 23%, 5a-5abis] (Eterna round: R97, puzzle: Brourd's mod of Exclusion 4)	17.3 nM	19.5 nM		
UUUGGUUUGCGAGGAUAUGCUUUUAGUAAGUUAGCAGAAGGCGCGUUACAUAGAACCUCUUGUUACAUGAGGAUCACCCAUGUU [JR_ExcNG1_Sub037] (Eterna round: R96, puzzle: Exclusion NG 1)				apparent KD of MS2 coat protein [1]: 77.3 nM
UUUUAACAUGAGGAUCACCCAUGUGAGGAUAUCGAAAUUUAUAUUAAUAUUAAUAUUUCGAGAAGGCACAUUUU [JMF 25] (puzzle: Exclusion 1)			125 nM	
UUUUAACAUGAGGAUCACCCAUGUGAGGAUAUCGAAAUUUAUAUUAAUAUUAAUUAAUCGAGAAGGCACAUUUU [JMF 28] (puzzle: Exclusion 1)			97.4 nM	
UUUUAACAUGAGGAUCACCCAUGUGAGGAUAUCGAAAUUUAUAUUAAUAUUAUUAUAACGAGAAGGCACAUUUU [JMF 39] (puzzle: Exclusion 1)			62.2 nM	
UUUUAACAUGAGGAUCACCCAUGUGAGGAUAUCGAAAUUUAUAUUAAUAUUAUUUAUACGAGAAGGCACAUUUU [JMF 46] (puzzle: Exclusion 1)			64.9 nM	
UUUUAACAUGAGGAUCACCCAUGUGAGGAUAUCGAAAUUUAUAUUUAUAUUAAUAUAACGAGAAGGCACAUUUU [JMF 79] (puzzle: Exclusion 1)			58.2 nM	
UUUUAACAUGAGGAUCACCCAUGUGAGGAUAUCGAAAUUUAUAUUUAUAUUAAUUAAUCGAGAAGGCACAUUUU [JMF 84] (puzzle: Exclusion 1)			150 nM	
UUUUACAAGCCAGAUCCUCACAUGAGGAUCACCCAUGUGCUCGUCUGUUUUCGCACUAUCACGUUUGUGAUAGUGCU [Level Boss var2-10] (puzzle: Sensor v3, turn-off variant 1)			12.9 nM	apparent KD of MS2 coat protein [3]: 162 nM; apparent KD of MS2 coat protein [4]: 288 nM
UUUUACAAGCUAAGAUCCUACAUGAGGAUCACCCAUGUGGUCCGGUGACGUGAGUCACCGGACUUAGCUCGUCUUGC [salish99_S_TOV1_R5_088] (Eterna round: R97, puzzle: Sensor, turn-off variant 1)	36.2 nM	43.7 nM		
UUUUACGUAGGAUAUACAUUUUUUUUAUUAUUUUCAUUAUUACAUGAGGAUCACCCAUGUAGAAGGACGAUUUU [My Design] (puzzle: Exclusion 2)			25 nM	
UUUUAGCAAGCGAGAAUUAACAUGAGGAUCACCCAUGUGCAUCCAGAAUUACUUUUAGAACAAGCUCGUCUUAUAUA [JR_STOV1_v2_Sub081] (Eterna round: R97, puzzle: Sensor, turn-off variant 1)	353 nM	401 nM		

Sequence	apparent KD of MS2 coat protein (input ligand: FMN 200 uM)	apparent KD of MS2 coat protein (input ligand: none)	apparent KD of MS2 coat protein [2]	other results
UUUUGACAUGAGGAUCACCCAUGUGAGGAUAUGGCUUGUGGCGCGUCUGUGUGGCGGGUUAGAAGGCGCGUGCG [-24.6, -21.7 kcal, A 16%] (Eterna round: R97, puzzle: Exclusion 1)	30.8 nM	38.3 nM		
UUUUGCUCAGGAUAUACAUGAGGAUCACCCAUGUAUAUUGAAGAUAAUACAUGGGAAUGUAGAAGGGAGCUCAU [Omei Ex3 Pseudoloop 19] (Eterna round: R97, puzzle: Exclusion 3)	73.5 nM	156 nM		
UUUUGGCAGGCAAUUAUUAACAUGAGGAUCACCCAUGUGCAUCCAAAAUUACUUUUAGAUCAAGCUCGUCUUAUAUA [JR_STOV1_Sub087] (Eterna round: R97, puzzle: Sensor, turn-off variant 1)	29.9 nM	35.1 nM		
UUUUGGCAGGUAAUUAUUAACAUGAGGAUCACCCAUGUGCAUCCAAAAUUACUUUUAGAUCAAGCUCGUCUUAUAUA [JR_STOV1_Sub088] (Eterna round: R97, puzzle: Sensor, turn-off variant 1)	34 nM	35.2 nM		
UUUUGUUUGCGAGGAUAUGCUUUUAGUAAGUUAGCAGAAGGCGCGUUACAUAGAACCUCUUGUUACAUGAGGAUCACCCAUGUU [JR_ExcNG1_Sub036] (Eterna round: R96, puzzle: Exclusion NG 1)	179 nM	168 nM		apparent KD of MS2 coat protein [1]: 110 nM
UUUUUAAAUGAAGGAUAUACUUAACAUGAGGAUCACCCAUGUGGUGUUGUGAGUGAGUGAGUUUAGUAGAAGGUCAAUUCUUUU [JMF's solution 86] (Eterna round: R96, puzzle: Exclusion NG 2)	619 nM	334 nM		apparent KD of MS2 coat protein [1]: 300 nM
UUUUUACAUGAGGAUCACCCAUGUCAGGAUAUGUUUAUAUUUUAUUAUUUUAUUUUUUACAGAAGGGACUAUUA [My solution] (puzzle: Exclusion 1)			123 nM	
UUUUUAGAUGAAGGAUAUACUUAACAUGAGGAUCACCCAUGUGGUGUUGUGAGUGAGUGAGUUUAGUAGAAGGUCAAUUAUUUU [JMF's solution 21] (Eterna round: R96, puzzle: Exclusion NG 2)	187 nM	260 nM		apparent KD of MS2 coat protein [1]: 151 nM
UUUUUAGUGCUUUUUAAGUACAUGAGGAUCACCCAUGUACUUGUCUGGUGGUCCGGACAAGCUUUUUGCUCGUCUAC [Sensor v3 - turn-off variant 1 - 2] (puzzle: Sensor v3, turn-off variant 1)			30.5 nM	apparent KD of MS2 coat protein [3]: 49.5 nM; apparent KD of MS2 coat protein [4]: 54.3 nM
UUUUUAGUGCUUUUUAAGUACAUGAGGAUCACCCAUGUACUUGUCUGGUGGUCCGGACAAGCUUUUUGCUCGUCUAG [Sensor v3 - turn-off variant 1 - 3] (Eterna round: R96, puzzle: Sensor v3, turn-off variant 1)	35.6 nM	35.8 nM		apparent KD of MS2 coat protein [1]: 27.4 nM
UUUUUAGUGCUUUUUAAGUACAUGAGGAUCACCCAUGUACUUGUCUGGUGGUCCGGACAAGCUUUUUGCUCGUCUAG [Sensor v3 - turn-off variant 1 - 3] (puzzle: Sensor v3, turn-off variant 1)			29.4 nM	apparent KD of MS2 coat protein [3]: 32.4 nM; apparent KD of MS2 coat protein [4]: 36.4 nM
UUUUUAUAUGAAGGAUAUACUUAACAUGAGGAUCACCCAUGUGGUGUUGUGAGUGAGUGAGUUUAGUAGAAGGUCAAUUAGCUU [JMF's solution 100] (Eterna round: R96, puzzle: Exclusion NG 2)	330 nM	342 nM		apparent KD of MS2 coat protein [1]: 185 nM
UUUUUGUCAGGAUAUGACUAGAUGCACGUUAGUGCAUCUACUUAGAAGGGACAUGAGGAUCACCCAUGUAUUCC [Bring Us a Shrubbery-12] (puzzle: Exclusion 4)			27.3 nM	
UUUUUGUCAGGAUAUGAUUAGAUCUACUUCGGUAGAUCUAAUCAGAAGGGACAUGAGGAUCACCCAUGUAGUUU [Ex4 - 3 - 12] (puzzle: Exclusion 4)			35.2 nM	
UUUUUGUCAGGAUAUGAUUAGAUCUACUUCGGUAGAUCUAAUCAGAAGGGACAUGAGGAUCACCCAUGUAGUUU [Mod of Brourd - Jieux - Exclusion 4] (Eterna round: R97, puzzle: Exclusion 4)	311 nM	55.8 nM		
UUUUUGUGAGGAUAUCAGUAGUAGAACAAUAGUACUACUACUGAGAAGGCACAUGAGGAUCACCCAUGUUCCUC [Fiskers Ex 4 Super stable 44 mod 9] (puzzle: Exclusion 4)			52.6 nM	
UUUUUGUGAGGAUAUCAGUAGUAGAACAAUAGUACUACUACUGAGAAGGCACAUGAGGAUCACCCAUGUUUCUC [Fiskers Ex 4 Super stable 44 mod 10] (puzzle: Exclusion 4)			43.3 nM	
